Results: the supplement of paper PMC9112550, “Optimization of the antimicrobial peptide Bac7 by deep mutational scanning” (BMC Biology, 2022)

test system: Escherichia coli TOP10; test: shrunken log2 fold change of peptide-encoding DNA abundance (4.5 h post-induction vs induction); higher = less antimicrobial activity (less host growth inhibition); settings: time post-induction: 4.5 h; library: site-saturation at positions 5, 18, 19, 20
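Note: peptides expressed intracellularly from a pBAD plasmid library in pooled LB shake-flask culture, induced with 0.3% L-arabinose, DNA abundance read by NGS, three biological replicates, DESeq2 with apeglm shrinkage.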

Sequence	shrunken log2 fold change
RRIRQRPPRLPRPRPRPWLHPRP	0.0098
RRIRPRPPRLPRPRPRPFANPRP	-0.0686
RRIRKRPPRLPRPRPRPLCDPRP	0.376
RRIRERPPRLPRPRPRPRFSPRP	-0.0175
RRIRYRPPRLPRPRPRPHWFPRP	-0.402
RRIRERPPRLPRPRPRPVTGPRP	-0.0257
RRIRCRPPRLPRPRPRPQARPRP	-0.421
RRIRVRPPRLPRPRPRPISMPRP	0.0223
RRIRMRPPRLPRPRPRPQWLPRP	0.351
RRIRDRPPRLPRPRPRPCPRPRP	-0.126
RRIRSRPPRLPRPRPRPTFCPRP	0.155
RRIRGRPPRLPRPRPRPNDDPRP	0.349
RRIRCRPPRLPRPRPRPLMIPRP	-0.431
RRIRRRPPRLPRPRPRPQMFPRP	-0.25
RRIRERPPRLPRPRPRPRRPPRP	0.27
RRIRIRPPRLPRPRPRPLDDPRP	0.0241
RRIRWRPPRLPRPRPRPWFFPRP	-0.0638
RRIRLRPPRLPRPRPRPVGPPRP	0.163
RRIRWRPPRLPRPRPRPSPSPRP	0.375
RRIRSRPPRLPRPRPRPEHFPRP	-0.246
RRIRCRPPRLPRPRPRPEKQPRP	-0.0123
RRIRVRPPRLPRPRPRPLHFPRP	-0.346
RRIRWRPPRLPRPRPRPTGGPRP	0.511
RRIRGRPPRLPRPRPRPAFAPRP	0.89
RRIRPRPPRLPRPRPRPSKTPRP	0.0619

Sequence	shrunken log2 fold change
RRIRDRPPRLPRPRPRPQWLPRP	0.24
RRIRFRPPRLPRPRPRPCTNPRP	-0.598
RRIRIRPPRLPRPRPRPKFCPRP	-0.639
RRIRMRPPRLPRPRPRPRMSPRP	0.353
RRIRWRPPRLPRPRPRPNYPPRP	-0.157
RRIRQRPPRLPRPRPRPFWPPRP	0.083
RRIRKRPPRLPRPRPRPPQCPRP	0.26
RRIRPRPPRLPRPRPRPMCKPRP	-0.274
RRIRGRPPRLPRPRPRPLQCPRP	0.904
RRIRTRPPRLPRPRPRPKHDPRP	-0.099
RRIRNRPPRLPRPRPRPCWPPRP	0.274
RRIRWRPPRLPRPRPRPFIIPRP	-0.617
RRIRWRPPRLPRPRPRPWLRPRP	0.0741
RRIRCRPPRLPRPRPRPNAIPRP	0.0905
RRIRDRPPRLPRPRPRPGVEPRP	0.022
RRIRFRPPRLPRPRPRPMCLPRP	-0.564
RRIRYRPPRLPRPRPRPNKFPRP	-0.546
RRIRNRPPRLPRPRPRPHPYPRP	-0.654
RRIRKRPPRLPRPRPRPPVIPRP	0.063
RRIRTRPPRLPRPRPRPMTEPRP	-0.0359
RRIRNRPPRLPRPRPRPMTRPRP	-0.386
RRIRCRPPRLPRPRPRPGWNPRP	-0.243
RRIRRRPPRLPRPRPRPVDGPRP	0.576
RRIRARPPRLPRPRPRPQMWPRP	0.102
RRIRSRPPRLPRPRPRPQEQPRP	0.0984

Sequence	shrunken log2 fold change
RRIRARPPRLPRPRPRPEMKPRP	3.7
RRIRNRPPRLPRPRPRPSANPRP	-0.379
RRIRARPPRLPRPRPRPYVPPRP	-0.114
RRIRYRPPRLPRPRPRPPKNPRP	-0.164
RRIRSRPPRLPRPRPRPRRWPRP	0.556
RRIRCRPPRLPRPRPRPHNIPRP	-0.898
RRIRSRPPRLPRPRPRPISEPRP	-0.0465
RRIRLRPPRLPRPRPRPEWYPRP	0.0934
RRIRQRPPRLPRPRPRPPVKPRP	0.0851
RRIRRRPPRLPRPRPRPAYKPRP	0.0139
RRIRHRPPRLPRPRPRPGLLPRP	-0.0335
RRIRYRPPRLPRPRPRPCNPPRP	-0.217
RRIRVRPPRLPRPRPRPEPAPRP	0.44
RRIRLRPPRLPRPRPRPDASPRP	0.101
RRIRYRPPRLPRPRPRPKWWPRP	-0.0129
RRIRYRPPRLPRPRPRPTDFPRP	-0.325
RRIRSRPPRLPRPRPRPSYLPRP	-0.707
RRIRFRPPRLPRPRPRPNEYPRP	-0.16
RRIRIRPPRLPRPRPRPEYIPRP	-0.667
RRIRVRPPRLPRPRPRPYMFPRP	-0.552
RRIRQRPPRLPRPRPRPTVLPRP	-0.0201
RRIRLRPPRLPRPRPRPNQVPRP	-0.294
RRIRTRPPRLPRPRPRPSIRPRP	-0.183
RRIRHRPPRLPRPRPRPQWQPRP	-0.0687
RRIRGRPPRLPRPRPRPRRIPRP	0.451
